Data published in the supplement of paper PMC9428881.
± gives the standard error.

Assay: background-corrected fluorescence of 3'-dye-labeled ssDNA relative to brightest sequence (3'-GCGCG) (fraction); higher = brighter dye fluorescence (less quenching)
Method in brief: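 Arrays of single-stranded DNA, with a 3' Cy3 or Cy5 dye beside each of 1024 permuted pentamers, were built on glass slides through light-directed phosphoramidite synthesis. They were washed for 2 h at r.t. in acetonitrile and scanned at 532 or 635 nm, once before and once after overnight ethylenediamine/ethanol deprotection. Fluorescence is reported after subtracting unlabeled-oligo background and normalizing to the brightest sequence. Averages cover 10 features per array and at least 3 syntheses.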

Sequence | background-corrected fluorescence (dye: Cy3 (3' terminal)) | background-corrected fluorescence (dye: Cy5 (3' terminal))
TTTTTTGCTGCTCATGCTGCTTTTTTTTTTTTTTTAAGAA | 0.619 ± 0.015 | 0.481 ± 0.022
TTTTTTGCTGCTGAGCAGCATTTTTTTTTTTTTTTAACTT [TTCAA] | 0.523 ± 0.0097 | 0.362 ± 0.026
TTTTTTGCTGCTGAGCATCATTTTTTTTTTTTTTTAACTG [GTCAA] | 0.547 ± 0.024 | 0.381 ± 0.029
TTTTTTGCTGCTGAGCATGATTTTTTTTTTTTTTTAACTC [CTCAA] | 0.418 ± 0.028 | 0.293 ± 0.019
TTTTTTGCTGCTGAGCATGCTTTTTTTTTTTTTTTAACTA [ATCAA] | 0.5388 ± 0.0047 | 0.406 ± 0.019
TTTTTTGCTGCTGATCAGCATTTTTTTTTTTTTTTAACGT [TGCAA] | 0.606 ± 0.023 | 0.45 ± 0.025
TTTTTTGCTGCTGATCATCATTTTTTTTTTTTTTTAACGG [GGCAA] | 0.652 ± 0.019 | 0.552 ± 0.04
TTTTTTGCTGCTGATCATGATTTTTTTTTTTTTTTAACGC [CGCAA] | 0.547 ± 0.021 | 0.436 ± 0.057
TTTTTTGCTGCTGATCATGCTTTTTTTTTTTTTTTAACGA [AGCAA] | 0.613 ± 0.0098 | 0.519 ± 0.07
TTTTTTGCTGCTGATGAGCATTTTTTTTTTTTTTTAACCT [TCCAA] | 0.459 ± 0.016 | 0.36 ± 0.039
TTTTTTGCTGCTGATGATCATTTTTTTTTTTTTTTAACCG [GCCAA] | 0.545 ± 0.036 | 0.42 ± 0.035
TTTTTTGCTGCTGATGATGATTTTTTTTTTTTTTTAACCC [CCCAA] | 0.392 ± 0.021 | 0.294 ± 0.016
TTTTTTGCTGCTGATGATGCTTTTTTTTTTTTTTTAACCA [ACCAA] | 0.492 ± 0.017 | 0.375 ± 0.053
TTTTTTGCTGCTGATGCGCATTTTTTTTTTTTTTTAACAT [TACAA] | 0.529 ± 0.035 | 0.374 ± 0.021
TTTTTTGCTGCTGATGCTCATTTTTTTTTTTTTTTAACAG [GACAA] | 0.576 ± 0.02 | 0.421 ± 0.019
TTTTTTGCTGCTGATGCTGATTTTTTTTTTTTTTTAACAC [CACAA] | 0.421 ± 0.035 | 0.306 ± 0.021
TTTTTTGCTGCTGATGCTGCTTTTTTTTTTTTTTTAACAA | 0.527 ± 0.024 | 0.419 ± 0.024
TTTTTTGCTGCTGCGCAGCATTTTTTTTTTTTTTTAAATT | 0.543 ± 0.048 | 0.401 ± 0.019
TTTTTTGCTGCTGCGCATCATTTTTTTTTTTTTTTAAATG [GTAAA] | 0.499 ± 0.015 | 0.375 ± 0.035
TTTTTTGCTGCTGCGCATGATTTTTTTTTTTTTTTAAATC [CTAAA] | 0.439 ± 0.019 | 0.306 ± 0.019
TTTTTTGCTGCTGCGCATGCTTTTTTTTTTTTTTTAAATA [ATAAA] | 0.564 ± 0.053 | 0.451 ± 0.031
TTTTTTGCTGCTGCTCAGCATTTTTTTTTTTTTTTAAAGT [TGAAA] | 0.653 ± 0.026 | 0.514 ± 0.049
TTTTTTGCTGCTGCTCATCATTTTTTTTTTTTTTTAAAGG [GGAAA] | 0.646 ± 0.026 | 0.502 ± 0.032
TTTTTTGCTGCTGCTCATGATTTTTTTTTTTTTTTAAAGC [CGAAA] | 0.538 ± 0.018 | 0.426 ± 0.021
TTTTTTGCTGCTGCTCATGCTTTTTTTTTTTTTTTAAAGA [AGAAA] | 0.693 ± 0.03 | 0.568 ± 0.03
TTTTTTGCTGCTGCTGAGCATTTTTTTTTTTTTTTAAACT [TCAAA] | 0.496 ± 0.0053 | 0.349 ± 0.028
